{"source": "paper PMC3058899", "about": "(Nature, 2010)", "molecules": {"B1": {"name": "tryptophan decarboxylase (C. roseus) (Catharanthus roseus) (protein)", "chain": "MGSIDSTNVAMSNSPVGEFKPLEAEEFRKQAHRMVDFIADYYKNVETYPVLSEVEPGYLRKRIPETAPYLPEPLDDIMKDIQKDIIPGMTNWMSPNFYAFFPATVSSAAFLGEMLSTALNSVGFTWVSSPAATELEMIVMDWLAQILKLPKSFMFSGTGGGVIQNTTSESILCTIIAARERALEKLGPDSIGKLVCYGSDQTHTMFPKTCKLAGIYPNNIRLIPTTVETDFGISPQVLRKMVEDDVAAGYVPLFLCATLGTTSTTATDPVDSLSEIANEFGIWIHVDAAYAGSACICPEFRHYLDGIERVDSLSLSPHKWLLAYLDCTCLWVKQPHLLLRALTTNPEYLKNKQSDLDKVVDFKNWQIATGRKFRSLKLWLILRSYGVVNLQSHIRSDVAMGKMFEEWVRSDSRFEIVVPRNFSLVCFRLKPDVSSLHVEEVNKKLLDMLNSTGRVYMTHTIVGGIYMLRLAVGSSLTEEHHVRRVWDLIQKLTDDLLKEA"}}, "key": {"PyrH": {"biological_target": "PyrH (Streptomyces rugosporus, UniProt A4D0H5)", "sequence (A4D0H5 whole entry)": "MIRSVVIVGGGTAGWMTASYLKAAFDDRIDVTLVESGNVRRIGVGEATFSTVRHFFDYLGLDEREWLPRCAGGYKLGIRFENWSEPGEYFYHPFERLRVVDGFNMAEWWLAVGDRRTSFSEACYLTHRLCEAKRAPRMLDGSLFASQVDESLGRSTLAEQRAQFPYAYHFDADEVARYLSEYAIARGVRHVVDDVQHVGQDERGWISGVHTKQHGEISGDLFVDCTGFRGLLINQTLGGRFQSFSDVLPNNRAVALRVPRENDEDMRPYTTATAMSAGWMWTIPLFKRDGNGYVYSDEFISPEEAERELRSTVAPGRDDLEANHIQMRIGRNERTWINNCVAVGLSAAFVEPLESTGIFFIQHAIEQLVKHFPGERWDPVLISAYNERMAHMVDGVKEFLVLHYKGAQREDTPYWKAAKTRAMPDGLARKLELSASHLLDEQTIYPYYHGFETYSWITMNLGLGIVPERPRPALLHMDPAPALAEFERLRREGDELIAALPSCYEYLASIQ", "test": "LC-MS of 5-chlorotryptophan in transformed C. roseus hairy roots", "format": "cell-based", "details": "with RebF reductase, chloride; in planta"}, "RebH": {"biological_target": "T1, RebH (Lentzea aerocolonigenes, UniProt Q8KHZ8)", "T1 sequence (Q8KHZ8 1-530)": "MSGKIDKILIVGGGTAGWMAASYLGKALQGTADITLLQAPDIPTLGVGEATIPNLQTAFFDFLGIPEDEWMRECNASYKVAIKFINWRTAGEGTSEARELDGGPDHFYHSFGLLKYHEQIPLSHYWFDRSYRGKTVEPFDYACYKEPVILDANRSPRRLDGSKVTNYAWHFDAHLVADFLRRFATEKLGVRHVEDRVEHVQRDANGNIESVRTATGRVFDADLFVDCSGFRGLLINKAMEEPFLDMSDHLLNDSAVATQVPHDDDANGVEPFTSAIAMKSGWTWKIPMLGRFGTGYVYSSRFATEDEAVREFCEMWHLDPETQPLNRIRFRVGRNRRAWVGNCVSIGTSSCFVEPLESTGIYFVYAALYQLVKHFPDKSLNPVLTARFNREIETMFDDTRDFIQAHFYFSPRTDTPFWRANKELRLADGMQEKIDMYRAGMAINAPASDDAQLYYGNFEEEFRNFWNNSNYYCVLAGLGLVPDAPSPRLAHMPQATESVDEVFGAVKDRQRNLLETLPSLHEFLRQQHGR", "test": "LC-MS of 7-chlorotryptophan in transformed C. roseus hairy roots", "format": "cell-based", "details": "with RebF reductase, chloride; in planta"}, "[1]": {"substrate": "N[C@@H](Cc1c[nH]c2c(Cl)cccc12)C(=O)O", "test": "in vitro steady-state kinetics of decarboxylation", "format": "biochemical, Catharanthus roseus"}, "[2]": {"substrate": "N[C@@H](Cc1c[nH]c2ccccc12)C(=O)O", "test": "in vitro steady-state kinetics of decarboxylation", "format": "biochemical, Catharanthus roseus"}, "[3]": {"substrate": "N[C@@H](Cc1c[nH]c2ccc(Cl)cc12)C(=O)O", "test": "in vitro steady-state kinetics of decarboxylation", "format": "biochemical, Catharanthus roseus"}}}
{"molecule": "N[C@@H](Cc1c[nH]c2ccccc12)C(=O)O", "note": "[compound 1, tryptophan]", "values": [{"measurement": "LC-MS of 5-chlorotryptophan in transformed C. roseus hairy roots", "setting": "PyrH", "result": "we observed accumulation of 5-chlorotryptophan 1b"}, {"measurement": "LC-MS of 7-chlorotryptophan in transformed C. roseus hairy roots", "setting": "RebH", "result": "formation of chlorinated tryptophan 1a and 1b and chlorinated alkaloids in both the RebH/RebF"}]}
{"molecule": "B1", "values": [{"measurement": "Km", "setting": "[1]", "result": "499 ± 74", "unit": "µM"}, {"measurement": "kcat", "setting": "[1]", "result": "0.0267 ± 0.00067", "unit": "s⁻¹"}, {"measurement": "Km", "setting": "[2]", "result": "51.7 ± 9.2", "unit": "µM"}, {"measurement": "kcat", "setting": "[2]", "result": "0.085 ± 0.0017", "unit": "s⁻¹"}, {"measurement": "Km", "setting": "[3]", "result": "538 ± 48", "unit": "µM"}, {"measurement": "kcat", "setting": "[3]", "result": "0.0417 ± 0.0013", "unit": "s⁻¹"}]}
